Assay results taken from paper PMC3089477.
Where a chain is given by its changes, count along the chain named.

T1: BcnI H219Q (UniProt Q8RNV8 1-238, H219Q)
T1 sequence: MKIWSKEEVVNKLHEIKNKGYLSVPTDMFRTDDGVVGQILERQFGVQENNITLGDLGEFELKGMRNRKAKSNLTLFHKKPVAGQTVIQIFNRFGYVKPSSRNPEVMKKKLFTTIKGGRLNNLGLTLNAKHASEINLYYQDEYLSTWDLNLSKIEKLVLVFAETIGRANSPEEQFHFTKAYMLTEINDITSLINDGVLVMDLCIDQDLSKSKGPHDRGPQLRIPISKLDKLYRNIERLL

T2: BcnI H77N+H219N (UniProt Q8RNV8 1-238, H77N;H219N)
T2 sequence: T1 sequence with H77N, Q219N

T3: BcnI H219N (UniProt Q8RNV8 1-238, H219N)
T3 sequence: T1 sequence with Q219N

T4: BcnI H77A+H219N (UniProt Q8RNV8 1-238, H77A;H219N)
T4 sequence: T1 sequence with H77A, Q219N

T5: BcnI H77N (UniProt Q8RNV8 1-238, H77N)
T5 sequence: T1 sequence with H77N, Q219H

T6: BcnI H77A (UniProt Q8RNV8 1-238, H77A)
T6 sequence: T1 sequence with H77A, Q219H

T7: BcnI wt (UniProt Q8RNV8 1-238)
T7 sequence: T1 sequence with Q219H

B1: CG oligoduplex (cognate) (dsDNA)
DNA 1: CGCACGACTTCCCGGAAGAGCACGC
DNA 2: GTTGCGTGCTCTTCCGGGAAGTCGTGCG
B2: TA oligoduplex (miscognate) (dsDNA)
DNA 1: CGCACGACTTCCTGGAAGAGCACGC
DNA 2: GTTGCGTGCTCTTCCAGGAAGTCGTGCG

What was measured:
Experiment in all cases: EMSA
BcnI H219Q = molecular target: T1, BcnI H219Q
BcnI H77N+H219N = molecular target: T2, BcnI H77N+H219N
BcnI H219N = molecular target: T3, BcnI H219N
BcnI H77A+H219N = molecular target: T4, BcnI H77A+H219N
BcnI H77N = molecular target: T5, BcnI H77N
BcnI H77A = molecular target: T6, BcnI H77A
BcnI wt = molecular target: T7, BcnI wt

Binder	Kd (BcnI H219Q)	Kd (BcnI H77N+H219N)	Kd (BcnI H219N)	Kd (BcnI H77A+H219N)	Kd (BcnI H77N)	Kd (BcnI H77A)	Kd (BcnI wt)
B1	0.6 nM	20 nM	0.4 nM	0.5 nM	0.3 nM	0.25 nM	0.5 nM
B2	–	–	–	–	–	25 nM	–
